B1: CLK3 (parent)
chain: FGEDYYGPSRSRHRRRSRERGPYR

Variants of: B1
Assay: protein stability index of a GFP-peptide fusion (GPS, HEK-293T) (PSI 1-6); higher = more stable
Conditions: c terminus: a fixed tail appended
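Note: lentivirally expressed fusions sorted by FACS into six bins by GFP to DsRed ratio, PSI derived from sequencing read proportions per bin multiplied by bin number.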

Protein stability index: each site, then its substitutions
R10: S 3, G 3.15, C 2.45, I 2.64, D 2.75, K 2.58, L 3.03, H 3.62, W 2.85, P 2.82, V 2.52, N 2.63, T 2.41, Y 2.12, F 2.31, Q 2.7, M 3.16, E 3.36, A 2.9
R12: Q 2.31, I 1.95, V 2.11, E 2.58, H 2.51, N 2.52, S 2.1, G 2.16, M 2.03, W 2.44, T 2.27, Y 2.58, L 1.48, F 2.18, D 1.86, P 2.39, A 2.13, K 3.19
R15: Y 2.69, N 2.47, L 2.23, S 2.04, C 1.57, H 2.18, F 1.85, T 1.91, K 3.27, M 3.55, E 1.95, A 2.18, Q 1.98, P 2.54, D 2.34, V 2.1, W 2.11, I 2.43, G 1.98
R18: S 1.83, T 2.32, G 2.54, Q 2.45, N 1.96, I 2.23, A 2.06, Y 2.36, P 2.37, V 2.29, E 1.8, L 2.22, K 2.46, W 3.29, M 2.89, C 2.21, F 2.73
E19: A 3.59
H13: F 2.64, C 2.29, A 2.16, G 2.46, L 2.18, Q 2.48, M 3.25, T 2.7, P 2.96, D 2.16, I 2.78, E 2.21, K 3.53, V 2.16, S 2.52, N 2.55, W 1.93, Y 2.52
R14: Y 2.02, P 2.08, E 2.66, S 2.19, N 2.89, M 2.13, K 3.03, L 2.27, A 1.88, F 2.83, H 2.44, I 2.41, C 1.85, V 2.22, T 2.42, G 2.62, Q 2.25, D 2.31, W 3.15
R16: P 1.63, F 1.64, K 2.46, Q 2.97, V 2.23, C 1.97, L 1.62, T 2.2, N 2.26, M 1.9, H 2.35, I 1.96, A 1.87, S 1.77, W 2.33, D 2.15, E 2.86, G 2.52
S11: D 2.57, G 2.58, E 2.02, F 2.76, H 3.12, T 2.86, A 2.97, C 2.95, N 2.21, I 2.56, Q 2.65, L 1.92, Y 2.99, K 3.18, W 2.3, R 2.53, V 2.35, P 3.1, M 2.13
S17: H 3.52, L 2.43, P 2.6, F 3.51, W 4.02, R 4.26, T 3.45, E 2.01, I 3.18, N 3.93, A 2.85, Y 3.4, D 2.58, C 2.83, G 3.1, Q 2.89, K 2.81, V 2.86, M 3.93
